Changes are numbered by the printed parent chain. Ends that are not written are not given here.

T1: human CC chemokine receptor 4 (CCR4) on CCR4/EL-4 cells (human, UniProt P51679 1-360)
T1 construct: also called hCCR4; human CCR4-high-expressing cell
T1 sequence: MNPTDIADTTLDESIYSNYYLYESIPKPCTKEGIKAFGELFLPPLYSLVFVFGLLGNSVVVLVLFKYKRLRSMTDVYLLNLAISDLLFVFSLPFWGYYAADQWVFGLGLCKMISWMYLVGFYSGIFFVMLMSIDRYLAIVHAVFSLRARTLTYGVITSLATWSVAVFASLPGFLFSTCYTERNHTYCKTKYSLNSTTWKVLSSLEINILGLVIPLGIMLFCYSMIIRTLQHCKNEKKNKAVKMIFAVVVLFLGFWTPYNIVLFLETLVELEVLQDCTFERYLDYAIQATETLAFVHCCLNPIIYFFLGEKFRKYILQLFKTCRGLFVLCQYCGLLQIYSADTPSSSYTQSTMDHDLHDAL

T2: BSA-Compound 1 (human CCR4 extracellular region peptide Compound 1 conjugated with BSA) (human, also: conjugated to BSA through SMCC, site not given here)
T2 construct: the claims speak of positions 13 to 29; ELISA antigen; also called CCR4 partial peptide
T2 peptide: DESIYSNYYLYESIPKPC

T3: biotinylated Compound 1 (biotinylated CCR4 partial peptide) (human, also: biotinylated, site not given here)
T3 construct: Same peptide as in BSA-Compound 1
T3 peptide: DESIYSNYYLYESIPKPC

B1: anti-CCR4 CDR-grafted antibody Ga10LV1 (antibody, human IgG1, V domains shown)
VH: EVQLVESGGDLVQPGRSLRLSCAASGFIFSNYGMSWVRQAPGKGLEWVATISSASTYSYYPDSVKGRFTISRDNAKNSLYLQMNSLRVEDTALYYCARHSDGNFAFGYWGQGTLVTVSS
VL: DVVMTQSPLSLPVTPGEPASISCRSSRNIVHINGDTYLEWYLQKPGQSPQLLIYKVSNRFSGVPDRFSGSGSGTDFTLKISRVEAEDVGVYYCFQGSLLPWTFGQGTKVEIK
notes: Tested as COS-7 supernatant and as purified antibody from YB2/0; also called pKM2160Ga10LV1
B2: anti-CCR4 CDR-grafted antibody Ga13LV3 (antibody, human IgG1, V domains shown)
VH: B1 VH with G42D, G44R, A97G
VL: B1 VL with V3L
notes: Tested as COS-7 supernatant and as purified antibody from YB2/0; also called pKM2160Ga13LV3
B3: anti-CCR4 CDR-grafted antibody Ga11LV1 (antibody, human IgG1, V domains shown)
VH: B1 VH with A97G
VL: B1 VL
notes: Tested as COS-7 supernatant and as purified antibody from YB2/0; also called pKM2160Ga11 LV1
B4: anti-CCR4 CDR-grafted antibody Ga13LV1 (antibody, human IgG1, V domains shown)
VH: B1 VH with G42D, G44R, A97G
VL: B1 VL
notes: Tested as COS-7 supernatant and as purified antibody from YB2/0; also called pKM2160Ga13LV 1
B5: anti-CCR4 CDR-grafted antibody Ga10LV0 (antibody, human IgG1, V domains shown)
VH: B1 VH
VL: B1 VL with V2I
notes: CDR alone grafted; Tested as COS-7 supernatant and as purified antibody from YB2/0; also called pKANTEX2160Ga10LV0; pKM2160Ga10LV0
B6: anti-CCR4 CDR-grafted antibody Ga11LV3 (antibody, human IgG1, V domains shown)
VH: B1 VH with A97G
VL: B1 VL with V3L
notes: Tested as COS-7 supernatant and as purified antibody from YB2/0; also called pKANTEX2160Ga11LV3; antibody of producing cell KM8760 (FERM BP-8130)
B7: anti-CCR4 CDR-grafted antibody Ga12LV1 (antibody, human IgG1, V domains shown)
VH: B1 VH with G42D, G44R
VL: B1 VL
notes: Tested as COS-7 supernatant and as purified antibody from YB2/0; also called pKM2160Ga12LV1
B8: anti-CCR4 CDR-grafted antibody Ga12LV3 (antibody, human IgG1, V domains shown)
VH: B1 VH with G42D, G44R
VL: B1 VL with V3L
notes: Tested as COS-7 supernatant and as purified antibody from YB2/0; also called pKANTEX2160Ga12LV3; antibody of producing cell KM8759 (FERM BP-8129)
B9: anti-CCR4 CDR-grafted antibody Ga10LV3 (antibody, human IgG1, V domains shown)
VH: B1 VH
VL: B1 VL with V3L
notes: Tested as COS-7 supernatant and as purified antibody from YB2/0; also called pKM2160Ga10LV3
B10: anti-CCR4 CDR-grafted antibody HV1LV1 (antibody, human IgG1, V domains shown)
VH: B1 VH with D10G, R16G, A49S, A75S, S78T, V88A, L93V
VL: B1 VL
notes: Tested as COS-7 culture supernatant only; also called pKM2160HV1LV1
B11: anti-CCR4 CDR-grafted antibody HV2LV3 (antibody, human IgG1, V domains shown)
VH: B1 VH with D10G, R16G, I28T, A49S, A75S, S78T, V88A, L93V, A97G
VL: B1 VL with V3L
notes: Tested as COS-7 culture supernatant only; also called pKM2160HV2LV3
B12: anti-CCR4 CDR-grafted antibody HV0LV1 (antibody, human IgG1, V domains shown)
VH: B1 VH with D10G, R16G, I28T, A49S, A75S, S78T, V88A, L93V
VL: B1 VL
notes: Tested as COS-7 culture supernatant only; also called pKM2160HV0LV1
B13: anti-CCR4 CDR-grafted antibody HV1LV2 (antibody, human IgG1, V domains shown)
VH: B1 VH with D10G, R16G, A49S, A75S, S78T, V88A, L93V
VL: B1 VL with V2I, V3L
notes: Tested as COS-7 culture supernatant only; also called pKM2160HV1LV2
B14: anti-CCR4 CDR-grafted antibody HV3LV0 (antibody, human IgG1, V domains shown)
VH: B1 VH with D10G, R16G, A49S, A75S, S78T, V88A, L93V, A97G
VL: B1 VL with V2I
notes: Tested as COS-7 culture supernatant only; also called pKM2160HV3LV0
B15: anti-CCR4 CDR-grafted antibody HV3LV3 (antibody, human IgG1, V domains shown)
VH: B1 VH with D10G, R16G, A49S, A75S, S78T, V88A, L93V, A97G
VL: B1 VL with V3L
notes: Tested as COS-7 culture supernatant only; also called pKM2160HV3LV 3
B16: anti-CCR4 CDR-grafted antibody HV0LV0 (antibody, human IgG1, V domains shown)
VH: B1 VH with D10G, R16G, I28T, A49S, A75S, S78T, V88A, L93V
VL: B1 VL with V2I
notes: Tested as COS-7 culture supernatant only; also called pKM2160HV0LV0
B17: anti-CCR4 CDR-grafted antibody HV0LV2 (antibody, human IgG1, V domains shown)
VH: B1 VH with D10G, R16G, I28T, A49S, A75S, S78T, V88A, L93V
VL: B1 VL with V2I, V3L
notes: Tested as COS-7 culture supernatant only; also called pKM2160HV0LV2
B18: anti-CCR4 CDR-grafted antibody HV0LV3 (antibody, human IgG1, V domains shown)
VH: B1 VH with D10G, R16G, I28T, A49S, A75S, S78T, V88A, L93V
VL: B1 VL with V3L
notes: Tested as COS-7 culture supernatant only; also called pKM2160HV0LV3
B19: anti-CCR4 CDR-grafted antibody Ga10LV2 (antibody, human IgG1, V domains shown)
VH: B1 VH
VL: B1 VL with V2I, V3L
notes: Tested as COS-7 culture supernatant only; also called pKM2160Ga10LV2
B20: anti-CCR4 CDR-grafted antibody HV2LV0 (antibody, human IgG1, V domains shown)
VH: B1 VH with D10G, R16G, I28T, A49S, A75S, S78T, V88A, L93V, A97G
VL: B1 VL with V2I
notes: Tested as COS-7 culture supernatant only; also called pKM2160HV2LV0
B21: anti-CCR4 CDR-grafted antibody HV1LV0 (antibody, human IgG1, V domains shown)
VH: B1 VH with D10G, R16G, A49S, A75S, S78T, V88A, L93V
VL: B1 VL with V2I
notes: Tested as COS-7 culture supernatant only; also called pKM2160HV1LV0
B22: anti-CCR4 CDR-grafted antibody HV1LV3 (antibody, human IgG1, V domains shown)
VH: B1 VH with D10G, R16G, A49S, A75S, S78T, V88A, L93V
VL: B1 VL with V3L
notes: Tested as COS-7 culture supernatant only; also called pKM2160HV1LV3

The first assay concerns the target T1, human CC chemokine receptor 4 (CCR4) on …. In words: flow cytometry on CCR4/EL-4 cells, antibody at 10 µg/ml. The protocol:
Into a 96 well plate, 2×10⁵ or more of CCR4/EL-4 cells, CCR4-high-expressing cells obtained in Reference Example 3, were dispensed. An antibody solution was prepared by diluting each of the purified antibodies and a human immunoglobulin (manufactured by Welfide) for preventing nonspecific staining to give concentrations of 10 μg/ml and 3.75 mg/ml, respectively, with a buffer for FACS, and the antibody solution was added at 100 μl/well and allowed to react for 30 minutes in ice. As a negative control, 10 μg/ml of an anti-human IL-5 receptor a chain antibody (WO 97/10354) was used. After washing twice with 200 μl/well of the buffer for FACS, a PE-labeled anti-human IgG antibody (manufactured by Coulter) diluted 100 times was added at 50 μl/well. After the reaction in ice under shading and subsequent washing three times with 200 μl/well of the buffer for FACS, the reaction product was suspended in 500 μl of the buffer for FACS and the fluorescence intensity was measured using a flow cytometer.
For B1, the binding result is reported as “binds”. For B2, the binding result is recorded as “binds”.

Consider B3, for which the binding result is given as “binds”. For the molecule B4, the binding result is listed as “binds”. Take B5: the binding result is reported as “binds”. Turning to B6, the binding result is listed as “binds”. Still for that read-out and setting: the result for B7 reads “binds”; that for B8, “binds”; that for B9, “binds”.

The target in the next assay is T2, BSA-Compound 1 (human CCR4 …). The assay can be described thus: ELISA on BSA-Compound 1, purified antibody. (An ELISA detects its analyte on a solid surface through an enzyme-linked reagent.)
On to B1, for which the binding result is on record as “binds”. The same measure, in the same setting: the result for B3 reads “binds”; that for B6, “binds”; that for B7, “binds”.

As to B8, the binding result is “binds”. For B9, the binding result is reported as “binds”.

In the next assay the target is T3, biotinylated Compound 1 (biotinylated …). In words: BIAcore 2000, biotinylated Compound 1 on sensor tip SA, antibody at 4 µg/ml. The protocol:
In order to measure the binding activity in more detail, the binding activity of various purified antibodies was measured using BIAcore 2000 (manufactured by BIACORE) as follows. In this case, HBS-EP (manufactured by BIACORE) was used as the buffer for diluting samples and for the measurement. First, 5 μl of 0.05 μg/ml solution of Compound 1 as a biotinylated CCR4 partial peptide was added to a sensor tip SA (manufactured by BIACORE) at a flow rate of 5 μl/minute and immobilized on the sensor tip.
To the prepared biotinylated compound 1 -immobilized sensor tip, 20 μl of 4 μg/ml solution of each of the purified antibodies was added at a flow rate of 5 μl/minute, and after completion of the addition, the dissociation reaction was monitored for 4 minutes and then the sensor tip surface was regenerated by adding 5 μl of 10 mM HCl twice. In this way, a binding reaction curve (sensorgram) for Compound 1 was obtained.
Regarding B1, the binding result is given as “binds”. In the case of B2, the binding result is listed as “binds”. The same measure, in the same setting: in the case of B3 it was “binds”; in that of B4, “binds”. On the same count and under the same terms, in the case of B5 it was “binds”; in that of B6, “binds”. Still for that read-out and setting: the result for B7 reads “binds”; that for B8, “binds”.

As for B9, the binding result is given as “binds”.

The next assay addresses T2, BSA-Compound 1 (human CCR4 …). The assay can be described thus: ELISA on BSA-Compound 1, COS-7 culture supernatant. The protocol:
Into a 96 well ELISA plate (manufactured by Greiner), 0.05 μg/ml of the prepared conjugate was dispensed in at 50 μl/well and allowed to stand at 4° C. overnight for adsorption. After washing with PBS, PBS containing 1% BSA (hereinafter referred to as “1% BSA-PBS”) was added thereto at 100 μl/well and allowed to react at room temperature for 1 hour to block the remaining active groups. After washing each well with PBS containing 0.05% Tween 20 (hereinafter referred to as “Tween-PBS”), a culture supernatant of the transformant was added at 50 μl/well and allowed to react at room temperature for 1 hour. After the reaction and subsequent washing of each well with Tween-PBS, a peroxidase-labeled goat anti-human IgG(γ) antibody solution (manufactured by American Qualex) diluted 6,000 folds with 1% BSA-PBS was added as a secondary antibody solution in 50 μl/well portions and allowed to react at room temperature for 1 hour After the reaction and subsequent washing with Tween-PBS, an ABTS substrate solution (a solution prepared by dissolving 0.55 g of […] ammonium in 1 liter of 0.1 M citrate buffer (pH 4.2) and adding 1 μl/ml hydrogen peroxide just before use) was added at 50 μl/well to develop color, and the reaction was stopped 20 minutes thereafter by adding 5% SDS solution at 50 μl/well. Thereafter, absorbance at 415 nm was measured.
Turning to B10, the binding result is “binds”. The same measure, in the same setting: in the case of B11 it was “binds”. Still for that read-out and setting: in the case of B12 it was “binds”.

On to B2, for which the binding result is “binds”.

With B13, the binding result is “binds”. Still for that read-out and setting: in the case of B14 it was “binds”; in that of B15, “binds”.

Turning to B16, the binding result was “binds”. On the same count and under the same terms, the result for B4 reads “binds”; that for B17, “binds”; that for B5, “binds”. Still for that read-out and setting: in the case of B18 it was “binds”; in that of B19, “binds”; in that of B20, “binds”.

As for B21, the binding result is “binds”.

As to B22, the binding result is “binds”.

For the origin of these results see patent US20030175273A1 (Kyowa Kirin, published 2003).
